T1: human CD11a (human) (UniProt P20701)
T1 sequence (looked up): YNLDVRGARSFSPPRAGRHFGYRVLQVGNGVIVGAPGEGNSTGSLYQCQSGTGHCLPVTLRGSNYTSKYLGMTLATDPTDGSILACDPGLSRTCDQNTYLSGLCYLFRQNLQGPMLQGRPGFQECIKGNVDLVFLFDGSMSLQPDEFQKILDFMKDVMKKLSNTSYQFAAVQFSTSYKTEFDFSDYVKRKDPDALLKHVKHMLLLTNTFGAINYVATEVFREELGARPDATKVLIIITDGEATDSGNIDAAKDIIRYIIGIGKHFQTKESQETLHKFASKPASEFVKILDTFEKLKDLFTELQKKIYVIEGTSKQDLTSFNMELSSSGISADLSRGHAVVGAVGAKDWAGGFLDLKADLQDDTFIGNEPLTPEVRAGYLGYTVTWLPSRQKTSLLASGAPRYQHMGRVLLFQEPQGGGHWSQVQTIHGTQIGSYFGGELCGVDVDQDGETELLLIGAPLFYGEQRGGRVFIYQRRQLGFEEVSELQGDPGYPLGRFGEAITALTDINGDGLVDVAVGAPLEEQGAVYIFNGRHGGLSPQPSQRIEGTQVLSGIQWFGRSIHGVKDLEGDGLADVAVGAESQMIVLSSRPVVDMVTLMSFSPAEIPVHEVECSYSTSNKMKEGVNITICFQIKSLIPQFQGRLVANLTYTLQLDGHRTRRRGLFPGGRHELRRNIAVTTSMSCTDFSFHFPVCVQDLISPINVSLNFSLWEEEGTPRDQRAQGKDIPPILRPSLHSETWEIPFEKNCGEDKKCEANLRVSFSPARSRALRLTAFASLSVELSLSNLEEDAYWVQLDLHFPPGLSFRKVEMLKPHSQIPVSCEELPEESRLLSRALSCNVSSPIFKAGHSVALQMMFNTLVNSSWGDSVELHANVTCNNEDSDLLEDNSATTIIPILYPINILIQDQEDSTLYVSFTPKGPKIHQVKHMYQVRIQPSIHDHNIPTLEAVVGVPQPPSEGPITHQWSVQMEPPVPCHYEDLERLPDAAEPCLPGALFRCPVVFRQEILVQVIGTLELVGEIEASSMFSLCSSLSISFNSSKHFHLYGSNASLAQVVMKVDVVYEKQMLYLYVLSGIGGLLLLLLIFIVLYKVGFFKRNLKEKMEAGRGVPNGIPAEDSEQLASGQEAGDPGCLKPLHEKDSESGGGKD


Target: T1, human CD11a (human)
Test: FACScan, Jurkat cells

Row | Binder | Var.EC50/HuIgG1 EC50 | other results
1 | L2 variant IgG1 (antibody, V domains shown) VH: EVQLVESGGGLVQPGGSLRLSCAASGYSFTGHWMNWVRQAPGKGLEWVGMIHPSDSETRYNQKFKDRFTISVDKSKNTLYLQMNSLRAEDTAVYYCARGIYFYGTTYFDYWGQGTLVTVSS VL: DIQMTQSPSSLSASVGDRVTITCRASKTISKYLAWYQQKPGKAPKLLIYAGAALQSGVPSRFSGSGSGTDFTLTISSLQPEDFATYYCQQHNEYPLTFGQGTKVEIKR | 1.1 | 
2 | H2C11 variant IgG1 (antibody, V domains shown) VH: EVQLVESGGGLVQPGGSLRLSCAASGYSFTGHWMNWVRQAPGKGLEWVGMIAPASSNTRYNQKFKDRFTISVDKSKNTLYLQMNSLRAEDTAVYYCARGIYFYGTTYFDYWGQGTLVTVSS VL: DIQMTQSPSSLSASVGDRVTITCRASKTISKYLAWYQQKPGKAPKLLIYSGSTLQSGVPSRFSGSGSGTDFTLTISSLQPEDFATYYCQQHNEYPLTFGQGTKVEIK | 24.9 | 
3 | H3B variant IgG1 (antibody, V domains shown) VH: EVQLVESGGGLVQPGGSLRLSCAASGYSFTGHWMNWVRQAPGKGLEWVGMIHPSDSETRYNQKFKDRFTISVDKSKNTLYLQMNSLRAEDTAVYYCARGIYFYGAAAFDYWGQGTLVTVSS VL: DIQMTQSPSSLSASVGDRVTITCRASKTISKYLAWYQQKPGKAPKLLIYSGSTLQSGVPSRFSGSGSGTDFTLTISSLQPEDFATYYCQQHNEYPLTFGQGTKVEIK | 34.7 | 
4 | humanized MHM24 F(ab)-5 (Fab, V domains shown) VH: EVQLVESGGGLVQPGGSLRLSCAASGFSFTGHWMNWVRQAPGKGLEWVGMIHPSDSETRYNQKFKDRFTISVDKSSSTLYLQMNSLRAEDTAVYYCARGIYFYGTTYFDYWGQGTLVTVSS VL: DIQMTQSPSSLSASVGDRVTITCRASKTISKYLAWYQQKPGKAPKLLIYSGSSLESGVPSRFSGSGSGTDFTLTISSLQPEDFATYYCQQHNEYPLTFGQGTKVEIK |  | EC50 F(ab)/EC50 F(ab)-2: 0.043; fold improvement in binding over F(ab)-2: 23 fold
5 | AspH54Glu variant IgG1 (antibody, V domains shown) VH: EVQLVESGGGLVQPGGSLRLSCAASGYSFTGHWMNWVRQAPGKGLEWVGMIHPSESETRYNQKFKDRFTISVDKSKNTLYLQMNSLRAEDTAVYYCARGIYFYGTTYFDYWGQGTLVTVSS VL: DIQMTQSPSSLSASVGDRVTITCRASKTISKYLAWYQQKPGKAPKLLIYSGSTLQSGVPSRFSGSGSGTDFTLTISSLQPEDFATYYCQQHNEYPLTFGQGTKVEIK |  | Variant EC50/HulgG1 EC50: 16
6 | ThrH100aAla variant IgG1 (antibody, V domains shown) VH: EVQLVESGGGLVQPGGSLRLSCAASGYSFTGHWMNWVRQAPGKGLEWVGMIHPSDSETRYNQKFKDRFTISVDKSKNTLYLQMNSLRAEDTAVYYCARGIYFYGATYFDYWGQGTLVTVSS VL: DIQMTQSPSSLSASVGDRVTITCRASKTISKYLAWYQQKPGKAPKLLIYSGSTLQSGVPSRFSGSGSGTDFTLTISSLQPEDFATYYCQQHNEYPLTFGQGTKVEIK | 2.3 | 
7 | humanized MHM24 F(ab)-3 (Fab, V domains shown) VH: EVQLVESGGGLVQPGGSLRLSCAASGFSFTGHWMNWVRQAPGKGLEWVGMIHPSDSETRYNQKFKDRATISVDNSKNTLYLQMNSLRAEDTAVYYCARGIYFYGTTYFDYWGQGTLVTVSS VL: DIQMTQSPSSLSASVGDRVTITCRASKTISKYLAWYQQKPGKAPKLLIYSGSSLESGVPSRFSGSGSGTDFTLTISSLQPEDFATYYCQQHNEYPLTFGQGTKVEIK |  | EC50 F(ab)/EC50 F(ab)-2: 1.2
8 | TyrH99Ala variant IgG1 (antibody, V domains shown) VH: EVQLVESGGGLVQPGGSLRLSCAASGYSFTGHWMNWVRQAPGKGLEWVGMIHPSDSETRYNQKFKDRFTISVDKSKNTLYLQMNSLRAEDTAVYYCARGIYFAGTTYFDYWGQGTLVTVSS VL: DIQMTQSPSSLSASVGDRVTITCRASKTISKYLAWYQQKPGKAPKLLIYSGSTLQSGVPSRFSGSGSGTDFTLTISSLQPEDFATYYCQQHNEYPLTFGQGTKVEIK | 1.4 | 
9 | humanized MHM24 F(ab)-4 (Fab, V domains shown) VH: EVQLVESGGGLVQPGGSLRLSCAASGFSFTGHWMNWVRQAPGKGLEWVGMIHPSDSETRYNQKFKDRFTISRDNSKNTLYLQMNSLRAEDTAVYYCARGIYFYGTTYFDYWGQGTLVTVSS VL: DIQMTQSPSSLSASVGDRVTITCRASKTISKYLAWYQQKPGKAPKLLIYSGSSLESGVPSRFSGSGSGTDFTLTISSLQPEDFATYYCQQHNEYPLTFGQGTKVEIK |  | EC50 F(ab)/EC50 F(ab)-2: 2.9; fold reduction in binding against F(ab)-2: 3 fold
10 | HisH32Ala variant IgG1 (antibody, V domains shown) VH: EVQLVESGGGLVQPGGSLRLSCAASGYSFTGAWMNWVRQAPGKGLEWVGMIHPSDSETRYNQKFKDRFTISVDKSKNTLYLQMNSLRAEDTAVYYCARGIYFYGTTYFDYWGQGTLVTVSS VL: DIQMTQSPSSLSASVGDRVTITCRASKTISKYLAWYQQKPGKAPKLLIYSGSTLQSGVPSRFSGSGSGTDFTLTISSLQPEDFATYYCQQHNEYPLTFGQGTKVEIK | 2.3 | 
11 | humanized MHM24 F(ab)-8 (Fab, V domains shown) VH: EVQLVESGGGLVQPGGSLRLSCAASGYSFTGHWMNWVRQAPGKGLEWVGMIHPSDSETRYNQKFKDRFTISVDKSKNTLYLQMNSLRAEDTAVYYCARGIYFYGTTYFDYWGQGTLVTVSS VL: DIQMTQSPSSLSASVGDRVTITCRASKTISKYLAWYQQKPGKAPKLLIYSGSTLQSGVPSRFSGSGSGTDFTLTISSLQPEDFATYYCQQHNEYPLTFGQGTKVEIKR |  | EC50 F(ab)/EC50 F(ab)-2: 0.004
12 | LysH73Ala variant IgG1 (antibody, V domains shown) VH: EVQLVESGGGLVQPGGSLRLSCAASGYSFTGHWMNWVRQAPGKGLEWVGMIHPSDSETRYNQKFKDRFTISVDASKNTLYLQMNSLRAEDTAVYYCARGIYFYGTTYFDYWGQGTLVTVSS VL: DIQMTQSPSSLSASVGDRVTITCRASKTISKYLAWYQQKPGKAPKLLIYSGSTLQSGVPSRFSGSGSGTDFTLTISSLQPEDFATYYCQQHNEYPLTFGQGTKVEIK | 5.2 | 
13 | SerH55Asn variant IgG1 (antibody, V domains shown) VH: EVQLVESGGGLVQPGGSLRLSCAASGYSFTGHWMNWVRQAPGKGLEWVGMIHPSDNETRYNQKFKDRFTISVDKSKNTLYLQMNSLRAEDTAVYYCARGIYFYGTTYFDYWGQGTLVTVSS VL: DIQMTQSPSSLSASVGDRVTITCRASKTISKYLAWYQQKPGKAPKLLIYSGSTLQSGVPSRFSGSGSGTDFTLTISSLQPEDFATYYCQQHNEYPLTFGQGTKVEIK | 2.1 | 
14 | H1 variant IgG1 (antibody, V domains shown) VH: EVQLVESGGGLVQPGGSLRLSCAASGYAFAGAWMNWVRQAPGKGLEWVGMIHPSDSETRYNQKFKDRFTISVDKSKNTLYLQMNSLRAEDTAVYYCARGIYFYGTTYFDYWGQGTLVTVSS VL: DIQMTQSPSSLSASVGDRVTITCRASKTISKYLAWYQQKPGKAPKLLIYSGSTLQSGVPSRFSGSGSGTDFTLTISSLQPEDFATYYCQQHNEYPLTFGQGTKVEIK | 5.9 | 
15 | TyrL94Ala variant IgG1 (antibody, V domains shown) VH: EVQLVESGGGLVQPGGSLRLSCAASGYSFTGHWMNWVRQAPGKGLEWVGMIHPSDSETRYNQKFKDRFTISVDKSKNTLYLQMNSLRAEDTAVYYCARGIYFYGTTYFDYWGQGTLVTVSS VL: DIQMTQSPSSLSASVGDRVTITCRASKTISKYLAWYQQKPGKAPKLLIYSGSTLQSGVPSRFSGSGSGTDFTLTISSLQPEDFATYYCQQHNEAPLTFGQGTKVEIKR | 11.8 | 
16 | HisH52Ser variant IgG1 (antibody, V domains shown) VH: EVQLVESGGGLVQPGGSLRLSCAASGYSFTGHWMNWVRQAPGKGLEWVGMISPSDSETRYNQKFKDRFTISVDKSKNTLYLQMNSLRAEDTAVYYCARGIYFYGTTYFDYWGQGTLVTVSS VL: DIQMTQSPSSLSASVGDRVTITCRASKTISKYLAWYQQKPGKAPKLLIYSGSTLQSGVPSRFSGSGSGTDFTLTISSLQPEDFATYYCQQHNEYPLTFGQGTKVEIK | 5 | 
17 | SerH28Ala variant IgG1 (antibody, V domains shown) VH: EVQLVESGGGLVQPGGSLRLSCAASGYAFTGHWMNWVRQAPGKGLEWVGMIHPSDSETRYNQKFKDRFTISVDKSKNTLYLQMNSLRAEDTAVYYCARGIYFYGTTYFDYWGQGTLVTVSS VL: DIQMTQSPSSLSASVGDRVTITCRASKTISKYLAWYQQKPGKAPKLLIYSGSTLQSGVPSRFSGSGSGTDFTLTISSLQPEDFATYYCQQHNEYPLTFGQGTKVEIK | 6.9 | 
18 | TyrH97Ala variant IgG1 (antibody, V domains shown) VH: EVQLVESGGGLVQPGGSLRLSCAASGYSFTGHWMNWVRQAPGKGLEWVGMIHPSDSETRYNQKFKDRFTISVDKSKNTLYLQMNSLRAEDTAVYYCARGIAFYGTTYFDYWGQGTLVTVSS VL: DIQMTQSPSSLSASVGDRVTITCRASKTISKYLAWYQQKPGKAPKLLIYSGSTLQSGVPSRFSGSGSGTDFTLTISSLQPEDFATYYCQQHNEYPLTFGQGTKVEIK | 10.9 | 

Reference: patent EP1516629B1
